According to US20250352661A1 (MYTHIC THERAPEUTICS, published 2025):
Substitutions are numbered along the chain they refer to. Names may count otherwise.

What was measured:
[1] = target: T1, Human LRRC15 Protein, His Tag (Acro Biosystems) (human, UniProt Q8TF66 22-538, limits assumed); test: BLI; dissociation pH 7.4 black, pH 5.4 grey [D00009 FIG. 1G]
T1 construct: Bought protein with His tag
T1 sequence (looked up): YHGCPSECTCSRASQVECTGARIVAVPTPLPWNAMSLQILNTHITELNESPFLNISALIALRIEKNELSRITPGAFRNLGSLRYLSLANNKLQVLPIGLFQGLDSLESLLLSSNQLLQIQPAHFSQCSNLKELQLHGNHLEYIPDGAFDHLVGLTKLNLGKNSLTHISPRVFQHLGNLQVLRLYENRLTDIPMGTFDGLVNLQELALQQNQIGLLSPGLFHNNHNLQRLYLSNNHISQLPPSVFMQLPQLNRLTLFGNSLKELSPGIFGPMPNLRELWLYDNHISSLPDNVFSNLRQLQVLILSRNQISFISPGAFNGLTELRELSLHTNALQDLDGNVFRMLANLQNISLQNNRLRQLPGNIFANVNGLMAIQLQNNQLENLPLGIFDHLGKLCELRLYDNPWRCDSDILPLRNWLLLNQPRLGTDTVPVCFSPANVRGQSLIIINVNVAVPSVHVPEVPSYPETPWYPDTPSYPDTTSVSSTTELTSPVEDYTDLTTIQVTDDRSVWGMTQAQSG

[2] = target: T2, Human LRRC15 Protein, His Tag (Acro Biosystems) (human, UniProt Q8TF66 22-538, limits assumed); test: BLI; dissociation pH 7.4 black, pH 5.4 grey [1/2); D00025 FIG. 6B (1/2]
T2 construct: not shown: His tag
T2 sequence (looked up): T1 sequence (looked up)
Experimental: Desirable mutations were transferred to a humanized framework (humanized, MYT 8387-8411). After allowing for four days of protein expression, cell culture supernatants were collected, quantified by SDS-PAGE analysis, and the pH dependence of the variant was evaluated using biolayer interferometry (BLI) on an Octet RED 96e instrument. Briefly, cell culture supernatants were diluted based on qualitative expression level of the variant determined by visual examination of SDS-PAGE gels, 5 μL of cell culture supernatant was diluted into 195 μL of 1×PBST, pH 7.4 for high expressors, 25 μL of cell culture supernatant was diluted into 175 μL of 1×PBST, pH 7.4 for medium expressors and 100 μL of cell culture supernatant was diluted into 100 μL of 1×PBST, pH 7.4 for low expressors for loading onto the sensor tips. The resulting diluted supernatants were then captured on an anti-human Fc sensor (Forte Bio). A baseline was established using 1×PBST (50 mM Potassium Phosphate Buffer+150 mM NaCl+0.05% Tween 20) pH 7.4, and the […] was associated with 50 nM of LRRC15 (Human LRRC15 Protein, His Tag, Acro Biosystems) in 1×PBST pH 7.4 for 120 sec to generate an association curve. In the dissociation phase, the antibody-antigen complex on the sensor was exposed to 1×PBST pH 7.4 or pH 5.4, for 300 sec. Association and dissociation phase curves were examined for the starting ABPC antibody (with no substitutions) and each corresponding antibody variant at pH 5.4 and pH 7.4 to inform on two criteria: a) enhanced dissociation (i.e., higher koff values) at pH 5.4 due to histidine substitution compared to the starting ABPC, (with no substitutions), and b) reduced dissociation at pH 7.4 (i.e., lower koff values) compared to pH 5.4 in the antibody variant itself and with the starting ABPC (with no substitutions).
The methods of Examples 9-10 were applied to RabMAb clone 29F1 (rabbit VH SEQ ID NO: 572 and VL SEQ ID NO: 578; and humanized VH SEQ ID NO: 576 and VL SEQ ID NO: 582).

B1: MYT8387 (antibody, V domains shown)
VH: EVQLVESGGGLVQPGGSLRLSCTASGLDFRRTNHICWVRQAPGKGLEWVGCIYIADVVHYYASWAKGRFTFSRDTSKNTVYLQMNSLRAEDTAVYYCARGADGGFVYGMDLWGQGTLVTVSS
VL: EIVMTQSPSTLSASVGDRVIITCQASQSIGNYLSWYQQKPGKAPKRLIYSASTLPSGVPSRFSGSGSGAEFTLTISSLQPDDFATYYCQNNYWLAGYGHPFGQGTKLTVL
notes: hu15G7 VH Y34H; human Fc
binding result [1]: binds

B2: MYT8388 (antibody, V domains shown)
VH: B1 VH with H34Y, Y53H
VL: B1 VL
notes: hu15G7 VH Y53H; human Fc
binding result [1]: binds

B3: MYT8389 (antibody, V domains shown)
VH: B1 VH with H34Y, G104H
VL: B1 VL
notes: hu15G7 VH G104H; human Fc
binding result [1]: binds

B4: MYT8390 (antibody, V domains shown)
VH: B1 VH with H34Y, F105H
VL: B1 VL
notes: hu15G7 VH F105H; human Fc
binding result [1]: binds

B5: MYT8392 (antibody, V domains shown)
VH: B1 VH with Y53H
VL: B1 VL
notes: hu15G7 VH Y34H, Y53H; human Fc
binding result [1]: no binding (tested: 50 nM LRRC15)

B6: MYT8394 (antibody, V domains shown)
VH: B1 VH with F105H
VL: B1 VL
notes: hu15G7 VH Y34H, F105H; human Fc
binding result [1]: no binding (tested: 50 nM LRRC15)

B7: MYT8395 (antibody, V domains shown)
VH: B1 VH with V106H
VL: B1 VL
notes: hu15G7 VH Y34H, V106H; human Fc
binding result [1]: no binding (tested: 50 nM LRRC15)

B8: MYT8397 (antibody, V domains shown)
VH: B1 VH with H34Y, Y53H, F105H
VL: B1 VL
notes: hu15G7 VH Y53H, F105H; human Fc
binding result [1]: no binding (tested: 50 nM LRRC15)

B9: MYT9706 (antibody, V domains shown)
VH: EVQLVESGGGLVQPGGSLRLSCTASGFSFSSSHWICWVRQAPGKGLEWVGCIYAGSIGSTYEASWAKGRFTISRDTSKNTVYLQMNSLRAEDTAVYYCARAPNDIYNYYFNLWGQGTLVTVSS
VL: EIVMTQSPSTLSASVGDRVIITCQASENIYNYLAWYQQKPGKAPKLLIYYASTLASGVPSRFSGSGSGAEFTLTISSLQPDDFATYYCQSGYVSKSSTFGQGTKLTVL
notes: also called hu29F1 VH Y62E
binding result [2]: binds

B10: MYT9707 (antibody, V domains shown)
VH: B9 VH with E62Y, A63E
VL: B9 VL
notes: also called hu29F1 VH A63E
binding result [2]: binds

B11: MYT9708 (antibody, V domains shown)
VH: B9 VH with E62Y, S64E
VL: B9 VL
notes: also called hu29F1 VH S64E
binding result [2]: binds

B12: MYT9710 (antibody, V domains shown)
VH: B9 VH with E62Y, A66E
VL: B9 VL
notes: also called hu29F1 VH A66E
binding result [2]: binds

B13: MYT9711 (antibody, V domains shown)
VH: B9 VH with E62Y, K67E
VL: B9 VL
notes: also called hu29F1 VH K67E
binding result [2]: binds

B14: MYT9712 (antibody, V domains shown)
VH: B9 VH with E62Y, G68E
VL: B9 VL
notes: also called hu29F1 VH G68E
binding result [2]: binds

B15: MYT9713 (antibody, V domains shown)
VH: B9 VH with E62Y, A99E
VL: B9 VL
notes: also called hu29F1 VH A99E
binding result [2]: binds

B16: MYT9714 (antibody, V domains shown)
VH: B9 VH with E62Y, R100E
VL: B9 VL
notes: also called hu29F1 VH R100E
binding result [2]: binds
